Measured values: article PMC11602501 (Frontiers in Immunology, 2024)

How the values were obtained:
[1] = biological target: T1, BG505_RnS soluble HIV-1 Env trimer (WT FP sequence) (HIV-1 BG505, UniProt Q2N0S6, stabilised); assay: BLI; ForteBio Octet HTX; IgG loaded on anti-human Fc (AHC) tips at 20 ug/ml for 3 min; Env trimers at 50 ug/ml for 5 min, dissociation in PBS 5 min; corrected response values, triplicates; conditions: both partners purified
T1 construct: also called BG505 trimer; not shown: single-chain Fc, N-terminal, cleaved; copies: 3 + 3

[2] = biological target: T2, HIV-1 fusion peptide FP15 (Env residues 512-526, most common sequence) (HIV-1 Env fusion peptide 512-526, most …); assay: peptide or protein array; conditions: both partners purified
T2 construct: source: peptide microarray (PEPperPRINT)
T2 chain: AVGIGAVFLGFLGAA

[3] = biological target: T3, FP15 A517E (HIV-1 Env fusion peptide 512-526, most …, A517E); assay: peptide or protein array; conditions: both partners purified
T3 construct: also called FP15 with Glu at residue 517; source: peptide microarray (PEPperPRINT)
T3 chain: AVGIGEVFLGFLGAA

[4] = biological target: T4, FP15 F519E (HIV-1); assay: peptide or protein array
T4 sequence (peptide): AVGIGAVELGFLGAA

[5] = biological target: T5, FP15 A517D (HIV-1); assay: peptide or protein array
T5 sequence (peptide): AVGIGDVFLGFLGAA

[6] = biological target: T6, FP15 V518E (HIV-1); assay: peptide or protein array
T6 sequence (peptide): AVGIGAEFLGFLGAA

[7] = biological target: T7, FP15 F519D (HIV-1); assay: peptide or protein array
T7 sequence (peptide): AVGIGAVDLGFLGAA

[8] = biological target: T8, FP15 V518D (HIV-1); assay: peptide or protein array
T8 sequence (peptide): AVGIGADFLGFLGAA

[9] = biological target: T1, BG505_RnS soluble HIV-1 Env trimer (WT …); assay: BLI; conditions: both partners purified

B1: ACS202 IgG (antibody, V domains shown)
VH: QVQLVESGGGVVQPGGSLRLSCAASGFAFKDFGMHWVRQAPGKGLEWVAVIGGGHGQHQSYSESVKGRFAITRDNEKNKLYLHMDRLRTEDTAVYYCAKDRLGRPWNIGGRLVYYYYGMDVWGQGTTVTVSS
VL: AIRMTQSPSSLSASVGDRVTITCQASQDIKKSLNWYRQKPGKAPELLIHDASILQTGVPSAFTASGSGTHFSFVINKLQPEDVGTYFCQEYENLQFTFGPGTKVEIK
notes: source: Expi293, transfected, purified (protein A)
In the case of B1, the binding result [1] is reported as “binds”, the binding result [2] is reported as “binds” and the “fold increase of binding intensity over WT” value [3] is reported as 10 fold. The fold increase of binding intensity over WT [4] was 10 fold, the fold increase of binding intensity over WT [5] was 10 fold and the fold increase of binding intensity over WT [6] was 10 fold. For the same binder, the fold increase of binding intensity over WT [7] was 10 fold and the fold increase of binding intensity over WT [8] was 10 fold.

B2: 0PV-c.01 IgG (antibody, V domains shown)
VH: QVQLVESGPGVVKPSETLSLTCVVSGGTPGRGFLYWSWVRQPPGKGLEWIGGTATNTDITDYNPSLKSRAAISKDTSRNQFLLNLKPLTAGDTAVYYCTSRAKDYRGPSYSRIDVWGPGVLVTVSS
VL: DIVMTQTPLSLPVTPGEPASISCRSSQSLLDSDGNTCLDWFLQKPGQSPQLLIYDVSNRVSGVPDRFSGSGSDTDFTLKISRVEAEDVGVYYCMQFVEFPLTFGGGTKVEIR
notes: as for B1
B2: binds [2].

B3: N123-VRC34.01 IgG (antibody, V domains shown)
VH: QEVLVQSGAEVKKPGASVKVSCRAFGYTFTGNALHWVRQAPGQGLEWLGWINPHSGDTTTSQKFQGRVYMTRDKSINTAFLDVTRLTSDDTGIYYCARDKYYGNEAVGMDVWGQGTSVTVSS
VL: IQLTQSPSFLSASVGDKVTITCRASQGVRNELAWYQQKPGKAPNLLIYYASTLQSGVPSRFSATGSGTHFTLTVSSLQPEDFATYFCQHMSSYPLTFGGGTKVEIK
notes: as for B1
B3: binds [9].
